Data reported in patent publication US20210024620A1.
Blank lines part the entries; values can stand above or below the substance they belong to.

Columns and labels:
[1] = target: Human CD16a (FcγRIIIa residues 17-208 with C-terminal HPC4 tag and valine at position 158) (human) (UniProt P08637); assay: Biacore SPR, HPC4-tagged FcγRIIIa-V158 captured by anti-HPC4, pH 7.4
[2] = target: biotinylated human FcRn (human) (UniProt P55899); assay: Biacore, biotin-captured hFcRn, pH 6.0
[3] = target: Human CD16a (FcγRIIIa V158) with C-terminal HPC4 tag (human) (UniProt P08637); assay: Biacore, FcγRIIIa V158 captured, relative to WT of the same backbone
mouse FcRn (mouse) = mouse FcRn (mouse) (UniProt Q61559); assay: Biacore, pH 7.4, steady state response
[4] = target: biotinylated cynomolgus FcRn (cynomolgus) (UniProt Q8SPV9); assay: Biacore, pH 7.4, steady state response
[5] = target: biotinylated human FcRn (human) (UniProt P55899); assay: Biacore, pH 7.4, steady state response
[6] = target: FcRn immobilised on the FcRn affinity column (biotinylated cynoFcRn in one experiment, biotinylated hFcRn in another); assay: FcRn affinity chromatography, linear pH gradient; species of the immobilised FcRn not given
rat FcRn (rat) [7] = target: rat FcRn (rat) (UniProt P13599); assay: Biacore, pH 6.0, apparent KD
[8] = target: biotinylated human FcRn (human) (UniProt P55899); assay: Biacore, pH 6.0, apparent KD
rat FcRn (rat) [9] = target: rat FcRn (rat) (UniProt P13599); assay: Biacore SPR, pH 7.4, 1000 nM antibody
[10] = target: biotinylated human FcRn (human) (UniProt P55899); assay: Biacore SPR, pH 7.4, 1000 nM antibody
rat FcRn (rat) [11] = target: rat FcRn (rat) (UniProt P13599); assay: Biacore, pH 6.0
[12] = target: biotinylated human FcRn (human) (UniProt P55899); assay: Biacore, pH 6.0
rat FcRn (rat) [13] = target: rat FcRn (rat) (UniProt P13599); assay: Octet BLI, pH 6.0
rat FcRn (rat) [14] = target: rat FcRn (rat) (UniProt P13599); assay: Biacore SPR, pH 6.0
[15] = target: biotinylated human FcRn (human) (UniProt P55899); assay: Biacore SPR, pH 6.0
[16] = target: biotinylated human FcRn (p51 subunit residues 24-297 with C-terminal Avi-tag; beta2-microglobulin residues 21-119) (human) (UniProt P55899); assay: Biacore; inverse ratio (RU at pH 7.4 over affinity at pH 6.0)
[17] = target: Human CD16a (FcγRIIIa V158) with C-terminal HPC4 tag (human) (UniProt P08637); assay: Biacore, FcγRIIIa V158 captured, steady-state fit, apparent KD
rat FcRn (rat) [18] = target: rat FcRn (rat) (UniProt P13599); assay: Biacore SPR, pH 6.0; remark: listed apart in the source
[19] = target: biotinylated human FcRn (human) (UniProt P55899); assay: Biacore SPR, pH 6.0; remark: listed apart in the source
[20] = target: Human CD16a (FcγRIIIa V158) with C-terminal HPC4 tag (human) (UniProt P08637); assay: Biacore SPR, FcγRIIIa-V158 captured, pH 7.4
[21] = target: biotinylated human FcRn (p51 subunit residues 24-297 with C-terminal Avi-tag; beta2-microglobulin residues 21-119) (human) (UniProt P55899); assay: Biacore SPR, pH 7.4, steady state
rat FcRn (rat) [22] = target: rat FcRn (rat) (UniProt P13599); assay: Biacore SPR, pH 7.4
[23] = target: biotinylated human FcRn (human) (UniProt P55899); assay: Biacore SPR, pH 7.4
[24] = target: biotinylated human FcRn (p51 subunit residues 24-297 with C-terminal Avi-tag; beta2-microglobulin residues 21-119) (human) (UniProt P55899); assay: Biacore SPR, pH 6.0
[25] = target: biotinylated human FcRn (p51 subunit residues 24-297 with C-terminal Avi-tag; beta2-microglobulin residues 21-119) (human) (UniProt P55899); assay: Biacore; affinity at pH 6.0 (M^-1) over steady state RU at pH 7.4
rat FcRn (rat) [26] = target: rat FcRn (rat) (UniProt P13599); assay: Biacore, pH 7.4, steady state response
[27] = target: biotinylated cynomolgus FcRn (cynomolgus) (UniProt Q8SPV9); assay: Biacore, biotin-captured cFcRn, pH 8.0
[28] = target: biotinylated cynomolgus FcRn (cynomolgus) (UniProt Q8SPV9); assay: Biacore, biotin-captured cFcRn, pH 9.0, 1000 nM antibody
[29] = target: biotinylated cynomolgus FcRn (cynomolgus) (UniProt Q8SPV9); assay: Biacore, biotin-captured cFcRn, pH 7.4
[30] = target: biotinylated cynomolgus FcRn (cynomolgus) (UniProt Q8SPV9); assay: Biacore, biotin-captured cFcRn, pH 8.0, 1000 nM antibody
[31] = target: biotinylated human FcRn (human) (UniProt P55899); assay: Biacore, biotin-captured hFcRn, pH 7.4
[32] = target: biotinylated cynomolgus FcRn (cynomolgus) (UniProt Q8SPV9); assay: Biacore, biotin-captured cFcRn, pH 7.4, 1000 nM antibody
[33] = target: biotinylated human FcRn (human) (UniProt P55899); assay: Biacore, biotin-captured hFcRn, pH 7.4, 1000 nM antibody
[34] = target: biotinylated human FcRn (human) (UniProt P55899); assay: Biacore, biotin-captured hFcRn, pH 9.0, 1000 nM antibody
[35] = target: biotinylated human FcRn (human) (UniProt P55899); assay: Biacore, biotin-captured hFcRn, pH 8.0
[36] = target: biotinylated human FcRn (human) (UniProt P55899); assay: Biacore, biotin-captured hFcRn, pH 8.0, 1000 nM antibody
[37] = target: biotinylated cynomolgus FcRn (cynomolgus) (UniProt Q8SPV9); assay: Biacore, biotin-captured cFcRn, pH 6.0

Chain of rat FcRn (rat) (P13599 23-298 limits assumed, chain 1 of 2): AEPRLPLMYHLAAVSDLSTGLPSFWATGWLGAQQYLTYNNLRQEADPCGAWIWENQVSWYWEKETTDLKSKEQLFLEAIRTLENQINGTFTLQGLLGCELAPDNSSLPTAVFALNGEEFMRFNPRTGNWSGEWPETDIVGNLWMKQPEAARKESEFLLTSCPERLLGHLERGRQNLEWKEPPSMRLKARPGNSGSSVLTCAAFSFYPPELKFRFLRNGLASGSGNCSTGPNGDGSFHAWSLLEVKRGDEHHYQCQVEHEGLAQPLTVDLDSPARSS
Chain of rat FcRn (rat) (P07151 21-119 limits assumed, chain 2 of 2, further chain): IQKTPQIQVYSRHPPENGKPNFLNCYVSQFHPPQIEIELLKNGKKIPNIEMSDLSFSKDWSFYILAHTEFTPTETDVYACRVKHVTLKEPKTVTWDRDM
Chain of Human CD16a (FcγRIIIa V158) with C-terminal HPC4 tag (human) (P08637 17-208 F176V): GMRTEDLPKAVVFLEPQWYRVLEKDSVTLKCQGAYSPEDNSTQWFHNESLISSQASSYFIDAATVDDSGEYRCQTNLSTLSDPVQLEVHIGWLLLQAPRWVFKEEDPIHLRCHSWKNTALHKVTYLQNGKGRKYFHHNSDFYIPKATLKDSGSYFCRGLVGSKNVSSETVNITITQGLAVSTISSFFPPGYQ
Chain of Human CD16a (FcγRIIIa residues 17-208 with C-terminal HPC4 tag and valine at position 158) (human) (P08637 17-208 F176V): as above

FcγRIIIa V158 Affinity Fold Change (fold relative to WT) [3]: 0.58
Steady State RU (mouse FcRn (mouse)): 394 RU
Steady State RU [4]: 22 RU
Steady State RU [5]: 27 RU
Substance: mAb2 YD (M252Y/T256D) (antibody)

Ratio (pH 7.4/pH 6.0) [16]: 2.06e-06
FcRn affinity column elution pH [6]: 7.92 pH
Kd [17]: 512 nM
Kd (rat FcRn (rat) [18]): 8.2 nM
koff [19]: 0.089 s⁻¹
kon [19]: 530000 M⁻¹ s⁻¹
Kd (rat FcRn (rat) [7]): 8.2 nM
Kd [8]: 169 nM
FcγRIIIa V158 affinity fold change relative to WT [20]: 0.89 fold
koff (rat FcRn (rat) [11]): 0.0013 s⁻¹
kon (rat FcRn (rat) [11]): 16000 M⁻¹ s⁻¹
koff [12]: 0.089 s⁻¹
kon [12]: 530000 M⁻¹ s⁻¹
Steady State Binding, pH 7.4 (RU) [21]: 12.2 RU
Steady State RU (rat FcRn (rat) [22]): 42.1 RU
Steady State RU [23]: 12.2 RU
Ka [24]: 5.92e+06 M⁻¹
Kd (rat FcRn (rat) [14]): 8.24 nM
koff (rat FcRn (rat) [14]): 0.00129 s⁻¹
kon (rat FcRn (rat) [14]): 157000 M⁻¹ s⁻¹
Kd [15]: 169 nM
koff [15]: 0.0892 s⁻¹
kon [15]: 529000 M⁻¹ s⁻¹
Ratio (pH 6.0/pH 7.4) [25]: 485000
Steady State RU (rat FcRn (rat) [26]): 42.1 RU
Steady State RU [5]: 12.2 RU
Substance: mAb1 MDWN (T256D/T307W) (antibody)

FcγRIIIa V158 Affinity Fold Change (fold relative to WT) [3]: 1.05
Steady State RU (mouse FcRn (mouse)): 248 RU
Steady State RU [4]: 11 RU
Steady State RU [5]: 14 RU
Substance: mAb2 DQ (T256D/T307Q) (antibody)

The remaining lines, values behind:

Substance: mAb1 YEQF (M252Y/T256E/T307Q/N434F) (antibody)
FcγRIIIa Binding Steady State RU [1]: 226 RU
Kd [2]: 15 nM
koff [2]: 0.0121 s⁻¹
kon [2]: 790000 M⁻¹ s⁻¹

Substance: mAb1 T307E (antibody)
FcRn affinity column elution pH [6]: 7.58 pH
Kd (rat FcRn (rat) [7]): 141 nM
Kd [8]: 8130 nM
Steady State RU (rat FcRn (rat) [9]): 21.5 RU
Steady State RU [10]: 5.7 RU
koff (rat FcRn (rat) [11]): 0.006 s⁻¹
kon (rat FcRn (rat) [11]): 56000 M⁻¹ s⁻¹
koff [12]: 0.3 s⁻¹
kon [12]: 44000 M⁻¹ s⁻¹
koff (rat FcRn (rat) [13]): 0.00329 s⁻¹
Kd (rat FcRn (rat) [14]): 141 nM
koff (rat FcRn (rat) [14]): 0.00603 s⁻¹
kon (rat FcRn (rat) [14]): 55500 M⁻¹ s⁻¹
Kd [15]: 8130 nM
koff [15]: 0.298 s⁻¹
kon [15]: 43700 M⁻¹ s⁻¹

Substance: mAb2 DW (T256D/T307W) (antibody)
FcγRIIIa V158 Affinity Fold Change (fold relative to WT) [3]: 1.15
Steady State RU (mouse FcRn (mouse)): 257 RU
Steady State RU [4]: 15 RU
Steady State RU [5]: 18 RU

Substance: mAb1 MDWY (T256D/T307W/N434Y) (antibody)
Ratio (pH 6.0/pH 7.4) [16]: 7.02e-07
Kd [27]: 1200 nM
koff [27]: 0.69 s⁻¹
kon [27]: 620000 M⁻¹ s⁻¹
Steady State RU [28]: 1.3 RU
Kd [29]: 85 nM
koff [29]: 0.029 s⁻¹
kon [29]: 350000 M⁻¹ s⁻¹
FcγRIIIa Binding Steady State RU [1]: 211 RU
Steady State Binding, pH 7.4 (RU) [21]: 59 RU
Steady State RU [30]: 197 RU
Kd [2]: 18 nM
koff [2]: 0.0123 s⁻¹
kon [2]: 700000 M⁻¹ s⁻¹
Kd [31]: 101 nM
koff [31]: 0.05 s⁻¹
kon [31]: 500000 M⁻¹ s⁻¹
Steady State RU [32]: 165 RU
Ka [24]: 8.4e+07 M⁻¹
Steady State RU [33]: 125 RU
Ratio (pH 6.0/pH 7.4) [25]: 1.42e+06
Steady State RU [34]: 0.7 RU
Kd [35]: 2700 nM
koff [35]: 0.54 s⁻¹
kon [35]: 260000 M⁻¹ s⁻¹
Steady State RU [36]: 145 RU
Kd [37]: 15 nM
koff [37]: 0.0103 s⁻¹
kon [37]: 700000 M⁻¹ s⁻¹

Substance: mAb1 AAA (T307A/E380A/N434A) (antibody)
FcRn affinity column elution pH [6]: 7.94 pH
Kd [17]: 450 nM
Kd (rat FcRn (rat) [7]): 77 nM
Steady State RU (rat FcRn (rat) [9]): 23.6 RU
koff (rat FcRn (rat) [11]): 0.0117 s⁻¹
kon (rat FcRn (rat) [11]): 157000 M⁻¹ s⁻¹
koff (rat FcRn (rat) [13]): 0.00377 s⁻¹
Kd (rat FcRn (rat) [14]): 77 nM
koff (rat FcRn (rat) [14]): 0.0117 s⁻¹
kon (rat FcRn (rat) [14]): 157000 M⁻¹ s⁻¹
Steady State RU (rat FcRn (rat) [26]): 23.6 RU
